Assay results: patent US20090155164A1 (Amgen, published 2009)
Values belong to the binder of their own block, whether it stands above or below them.

Tests used:
[1] = biological target: T1, human c-fms, full length, on cells (human, UniProt P07333 20-972); assay: inhibition of 125I-CSF-1 binding to AML-5 cells; competitor: 125I-CSF-1 (summary table)
T1 construct: whole, on cells; also called CSF-1R
Protocol: (§1) A saturation radioligand binding experiment was performed in conjunction with each inhibition assay in order to determine both a KD and […] for hCSF-1 binding to c-fms expressed on the surface of AML-5 cells. Mixtures were set up in 96-well round-bottom microtiter plates with total volumes of 150 μl/well. All reagents were diluted in binding media containing 0.2% sodium azide and experiments were conducted at 4° C. to minimize potential receptor internalization and shedding.
Both assays were incubated at 4° C. on a miniorbital shaker for 4 hours, the length of time needed to reach equilibrium as determined in time course experiments. Two 60 μl aliquots of each incubation mixture were transferred to chilled 400 μl polyethylene centrifuge tubes containing 200 μl phthalate oil and spun for 1.5 minutes in a 4° C. tabletop microfuge (Sorvall,) at 9615×g to separate cell associated ¹²⁵I-hCSF-1 from free ¹²⁵I-hCSF-1. The oil tubes were cut, and each cell pellet and supernatant collected in individual 12×75 mm glass tubes and loaded on a COBRA gamma counter (Packard Instrument Company) for cpm measurements. Cpm from duplicate aliquots taken from each well were averaged for analysis.
Mean K₁ values from 2 experiments were reported (see, TABLE 13).

[2] = biological target: T1, human c-fms, full length, on cells; assay: cell-based or functional assay
[3] = biological target: T2, avidin-c-fms Ig-like 2 domain only fusion protein (chicken; human, UniProt P07333 85-223); assay: FACS, biotin beads loaded with the avidin fusion protein; per the sheet's title 1 µg/mL anti C-FMS and 1 µg/mL mouse anti-human IgG Fc-gamma FITC secondary
T2 construct: Captured on biotin beads; also called Ig-like loop 2 alone (TEPG-AQIV); not shown: chicken avidin, N-terminal fusion partner from pCEP4-Avidin(N)
T2 sequence (P07333 85-223 limits assumed): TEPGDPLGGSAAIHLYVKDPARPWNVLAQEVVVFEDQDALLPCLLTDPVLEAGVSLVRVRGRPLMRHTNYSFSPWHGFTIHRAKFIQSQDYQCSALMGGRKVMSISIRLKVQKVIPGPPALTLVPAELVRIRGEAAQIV

[4] = biological target: T3, monomeric human c-fms (residues 1-512)-pHis (human, UniProt P07333 20-512); assay: Biacore, monomeric c-fms
T3 construct: Construct stated as residues 1-512; signal stated as amino acids 1-19 and left out; also called human c-fms (1-512).pHIS; monomeric c-fms
T3 sequence (P07333 20-512): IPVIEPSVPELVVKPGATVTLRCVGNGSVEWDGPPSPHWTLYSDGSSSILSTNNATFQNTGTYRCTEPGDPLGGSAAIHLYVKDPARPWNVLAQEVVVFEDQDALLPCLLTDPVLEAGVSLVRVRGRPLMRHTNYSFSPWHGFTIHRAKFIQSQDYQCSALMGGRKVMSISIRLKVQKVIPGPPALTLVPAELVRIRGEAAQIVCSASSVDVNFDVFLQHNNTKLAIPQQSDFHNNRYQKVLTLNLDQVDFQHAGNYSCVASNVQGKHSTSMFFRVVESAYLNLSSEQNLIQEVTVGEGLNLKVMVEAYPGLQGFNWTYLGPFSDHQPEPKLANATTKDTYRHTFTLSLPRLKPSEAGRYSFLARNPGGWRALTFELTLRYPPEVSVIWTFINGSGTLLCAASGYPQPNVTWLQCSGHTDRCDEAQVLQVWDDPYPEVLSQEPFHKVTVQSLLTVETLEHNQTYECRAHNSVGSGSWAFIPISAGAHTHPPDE
Protocol: The binding affinities of the somatic mutation corrected antibodies to monomeric c-fms protein were measured by surface plasmon resonance using a Biacore 3000 instrument.
The affinity of human c-fms (1-512). pHIS (Amgen) for the anti-c-fms mAbs was measured by Biacore. Experiments were conducted at 25° C. using a Biacore 3000 instrument (Biacore AB) equipped with a CM4 sensor chip. Sensor chips, amine coupling reagents (EDC (1-ethyl-3(3-dimethylaminopropyl)-carbodiimide hydrochloride), NHS (N-hydroxysuccinimide), and ethanolamine-HCl, pH 8.5), 10 mM sodium acetate, pH 5.5, HBS-EP (0.01 M HEPES pH 7.4, 0.15 M NaCl, 3 mM EDTA, 0.005% v/v Surfactant P20), and 10 mM glycine-HCl, pH 1.5 were purchased from Biacore AB. Bovine serum albumin (BSA, Bovuminar Standard Powder) was purchased from Serological Corporation. AffiniPure Goat Anti-Human IgG, Fcγ Fragment Specific was purchased from Jackson ImmunoResearch Laboratories.
(§2) Other anti-c-fms antibodies were tested in a similar manner, but changes were made to the protocol to account for differences in binding characteristics.

[5] = biological target: T1, human c-fms, full length, on cells; assay: inhibition of 125I-hCSF-1 binding to AML-5 cells, 4 C; competitor: 125I-hCSF-1
Protocol: as §1
For the saturation binding assay, ¹²⁵I-hCSF-1 was serially diluted 2-fold, starting at a concentration of ˜1.7 nM and going out 12 wells to a concentration of ˜1.5 pM. Nonspecific binding was measured at a single concentration of ¹²⁵I-hCSF-1 (˜80 pM, in triplicate) in the presence of a 1,000-fold molar excess of unlabeled hCSF-1, and assumed to be a linear function of the concentration of radiolabeled hCSF-1 present.

[6] = biological target: T1, human c-fms, full length, on cells; assay: cell-based or functional assay; remark: listed apart in the source
[7] = biological target: T4, cynomolgus monkey c-fms on primary bone marrow cells (cynomolgus monkey); assay: cell-based or functional assay
[8] = biological target: T3, monomeric human c-fms (residues …); assay: Biacore 3000, 25 C; mAb captured on goat anti-human IgG Fc, monomeric c-fms(1-512)-pHis analyte, 1:1 fit
Protocol: (§3) Anti-c-fms 1.2 or 1.2 SM at 0.25 μg/ml was injected over goat anti-human IgG, Fcγ in one flow cell for 2 minutes at 10 μl/min to obtain a surface density of ˜47 RUs. Another flow cell with goat anti-human IgG, Fcγ alone was used as a reference surface. Each assay started with ten cycles of buffer as the analyte to stabilize the signal. […] Each complex was allowed to associate for 2 minutes, and dissociate for 5 minutes. The surfaces were regenerated after each c-fms or buffer injection with a 30-second pulse of 10 mM glycine HCl, pH 1.5 at 100 μl/min, followed by a 30-second injection of buffer.
as §2
(§4) Data was double referenced by subtracting the reference surface responses to remove bulk refractive index changes, and then subtracting the averaged buffer blank response to remove systematic artifacts from the experimental flow cells.

[9] = biological target: T3, monomeric human c-fms (residues …); assay: Biacore (summary table)
Protocol: as §3, §2, §4

[10] = biological target: T1, human c-fms, full length, on cells; assay: cell-based or functional assay; remark: listed apart in the source
[11] = biological target: T4, cynomolgus monkey c-fms on primary bone …; assay: cell-based or functional assay; remark: listed apart in the source

T1 sequence (P07333 20-972): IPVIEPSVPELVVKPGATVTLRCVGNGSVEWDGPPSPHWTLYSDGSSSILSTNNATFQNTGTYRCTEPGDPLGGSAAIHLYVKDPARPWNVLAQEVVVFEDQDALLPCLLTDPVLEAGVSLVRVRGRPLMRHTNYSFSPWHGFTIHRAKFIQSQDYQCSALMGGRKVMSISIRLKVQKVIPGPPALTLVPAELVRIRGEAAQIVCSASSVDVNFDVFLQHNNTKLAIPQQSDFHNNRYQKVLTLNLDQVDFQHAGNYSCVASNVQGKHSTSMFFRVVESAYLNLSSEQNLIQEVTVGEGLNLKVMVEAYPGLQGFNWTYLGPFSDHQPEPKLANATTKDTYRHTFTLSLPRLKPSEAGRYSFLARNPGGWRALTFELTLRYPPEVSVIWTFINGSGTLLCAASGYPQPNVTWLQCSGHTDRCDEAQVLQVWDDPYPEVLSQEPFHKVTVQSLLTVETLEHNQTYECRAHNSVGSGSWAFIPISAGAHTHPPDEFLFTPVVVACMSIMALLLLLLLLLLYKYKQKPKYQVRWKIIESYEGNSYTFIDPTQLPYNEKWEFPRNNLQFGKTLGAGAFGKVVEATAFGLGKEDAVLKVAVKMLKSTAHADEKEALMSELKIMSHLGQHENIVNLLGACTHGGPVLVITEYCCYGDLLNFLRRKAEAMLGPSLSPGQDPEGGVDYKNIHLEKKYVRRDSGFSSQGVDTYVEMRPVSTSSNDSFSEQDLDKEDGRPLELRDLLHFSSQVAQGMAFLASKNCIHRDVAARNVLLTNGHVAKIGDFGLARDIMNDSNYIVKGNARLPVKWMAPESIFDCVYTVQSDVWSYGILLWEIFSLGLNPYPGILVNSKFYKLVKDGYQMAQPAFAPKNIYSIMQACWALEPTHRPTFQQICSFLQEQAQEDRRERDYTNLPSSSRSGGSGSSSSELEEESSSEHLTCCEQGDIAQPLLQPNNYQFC

Ki [1]: 0.0135 nM
antibody concentration that prevented CSF-1-induced pTyr/c-fms, 293T/c-fms cells [2]: ≥ 0.1 µg/ml
antibody concentration that reduced CSF-1-induced pTyr/c-fms to background, 293T/c-fms cells [2]: 0.1 µg/ml
binding result [3]: no binding (tested: 1 µg/mL)
Kd [4]: 0.051 nM
Ki [5]: 0.0135 nM
AML-5 bioassay IC50 [6]: 0.027 nM
Cynomolgus bone marrow bioassay IC50 [7]: 0.016 nM
Kd [8]: 0.051 nM
koff [8]: 0.000129 s⁻¹
kon [8]: 2.54e+06 M⁻¹ s⁻¹
Kd [9]: 0.051 nM
AML-5 proliferation IC50 [10]: 0.027 nM
Cynomolgus Bone Marrow Proliferation IC50 [11]: 0.016 nM
B1: anti-c-fms IgG2 clone 1.109 (parent form, PT) (antibody, V domains shown)
VH: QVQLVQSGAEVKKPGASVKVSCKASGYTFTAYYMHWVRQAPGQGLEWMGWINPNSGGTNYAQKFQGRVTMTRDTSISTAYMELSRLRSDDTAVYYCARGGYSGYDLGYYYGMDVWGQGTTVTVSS
VL: DIQMTQSPSSLSASVGDRVTITCQASQNISNFLDWYQQKPGKAPNLLIYDASDLDPGVPSRFSGSGSGTDFTFTISSLQPEDIATYYCQQYVSLPLTFGGGTKVEIKR
modifications: N-linked glycosylation site at Asn-28 in CDR1, reported as likely occupied; N-terminal glutamine cyclized to pyroglutamic acid; C-terminal lysine absent
notes: Recombinant human IgG2 kappa from COS/PKB cells (hybridoma was IgG1)

Ki [1]: 0.0085 nM
antibody concentration that prevented CSF-1-induced pTyr/c-fms, 293T/c-fms cells [2]: ≥ 0.1 µg/ml
antibody concentration that reduced CSF-1-induced pTyr/c-fms to background, 293T/c-fms cells [2]: 0.1 µg/ml
binding result [3]: no binding (tested: 1 µg/mL)
Kd [4]: 0.516 nM
Ki [5]: 0.0085 nM
AML-5 bioassay IC50 [6]: 0.027 nM
Cynomolgus bone marrow bioassay IC50 [7]: 0.078 nM
Kd [8]: 0.516 nM
koff [8]: 0.00198 s⁻¹
kon [8]: 3.84e+06 M⁻¹ s⁻¹
Kd [9]: 0.516 nM
AML-5 proliferation IC50 [10]: 0.027 nM
Cynomolgus Bone Marrow Proliferation IC50 [11]: 0.078 nM
B2: anti-c-fms IgG2 clone 1.2 (parent form, PT) (antibody, V domains shown)
VH: QVQLVQSGAEVKKPGASVKVSCKASGYTFTSYGISWVRQAPGQGLEWMGWISAYNGNTNYAQKLQGRVTMTTDTSTSTAYMELRSLRSDDTAVYYCARESWFGEVFFDYWGQGTLVTVSS
VL: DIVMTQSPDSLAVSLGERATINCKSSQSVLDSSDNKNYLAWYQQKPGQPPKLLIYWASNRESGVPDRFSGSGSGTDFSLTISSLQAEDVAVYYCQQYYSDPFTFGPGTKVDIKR
modifications: N-terminal glutamine cyclized to pyroglutamic acid; C-terminal lysine absent
notes: Recombinant human IgG2 kappa from COS/PKB cells (hybridoma was IgG1); also called 1.2.1; Clone 1.2 PT

Ki [1]: ~0.16 nM
antibody concentration that reduced CSF-1-induced pTyr/c-fms to background, 293T/c-fms cells [2]: 1 µg/ml
binding result [3]: no binding (tested: 1 µg/mL)
Kd [4]: 0.535 nM
Ki [5]: ~0.16 nM
AML-5 bioassay IC50 [6]: 0.06 nM
Cynomolgus bone marrow bioassay IC50 [7]: 0.067 nM
Kd [8]: 0.535 nM
koff [8]: 0.000667 s⁻¹
kon [8]: 1.25e+06 M⁻¹ s⁻¹
Kd [9]: 0.535 nM
AML-5 proliferation IC50 [10]: 0.06 nM
Cynomolgus Bone Marrow Proliferation IC50 [11]: 0.067 nM
B3: anti-c-fms IgG2 clone 2.360 (parent form, PT) (antibody, V domains shown)
VH: QVQLVQSGAEVKKPGASVKVSCKVSGYTLTELSMHWVRQAPGKGLEWMGGFDPEDGETIYAQKFQGRVTMTEDTSTDTVYMELSSLRSEDTAVYYCATGVMITFGGVIVGHSYYGMDVWGQGTTVTVSS
VL: DIQMTQSPSSLSASVGDRVTITCRASQGINNYLAWYQQKPGKVPQLLIYVASTLQSGVPSRFSGSGSGTDFTLTISSLQPEDVATYYCQKYNSGPFTFGPGTKVDIKR
modifications: N-terminal glutamine cyclized to pyroglutamic acid; C-terminal lysine absent
notes: Recombinant human IgG2 kappa from COS/PKB cells
